Residues, ends and D or L forms follow the SMILES beside them. *: point of attachment. DOTA = O=C(O)CN1CCN(CC(=O)O)CCN(CC(=O)*)CCN(CC(=O)O)CC1; X1 = CN(C)c1ccc(/N=N/c2ccc(C(=O)*)cc2)cc1
Key:
[1] = sodium chloride 0.9%, ambient temperature, up to 6 hr, TLC, specific activity 18.5 MBq/nmol, mean n=3
Description: As an in vitro stability evaluation, radiolabeled peptides (specific activity= 18.5 MBq/nmol) were added to sodium chloride 0.9 % isotonic solution ([24]). After incubation at ambient temperature, samples were taken out at 0.06, 0.5, 1, 2, 4, and 6 hr. The radiochemical purity of the mixture was investigated by a TLC stripe. To survey biostability, 100 μl of the labeled compound was added to fresh human serum (1 ml) and incubated (37 °C, 5% CO2) at different time points (4, 30, 60, 120, 240, and 360 min). 100 μl aliquots of serum samples were then incubated with 100 μl of ethanol. Samples were centrifuged at 5000 rpm for 5 min at 37 °C and 20 µl supernatant was removed to assess the degradation of ^99mTc labeled peptide by TLC.

in vivo = assay: in vivo
Description: To study ischemia-induced myocardial injuries, male Wistar rats weighing 200~250 gr were sorted into three groups of four (n=4): (1) normal group, (2) Ischemic group, and (3) sham group. The rats were anesthetized by intraperitoneal (IP) administration of 3 % pentobarbital sodium (60 mg/kg). Positive pressure mechanical ventilation was made by a Shinano respirator (SN-480–4) and an open-heart operation was done at the level of the left 4th–5th ribs. The rats received intramuscular injections of penicillin sodium (0.8 mg/g) to prevent infection. Myocardial ischemia was induced by a slipknot (4–0 silk suture) around the LAD about 2–3 mm near its origin. After 30-min ischemia, the slipknot was loosened to restore normal circulation for reperfusion ([28]). […] In the same group, heart surgery was performed without LAD artery occlusion.
The biodistribution of radiopeptide among tissues was measured by sacrifice of rats for each elected interval (30, 60, 180, and 360 min) post-injection. Various tissues, including heart, bone, kidneys, muscle, salivary glands, spleen, and intestines, were removed immediately and rinsed with saline solution to clean their residual blood. Moreover, blood samples for monitoring radioactivity were taken from the heart by a heparin-impregnated syringe after sacrificing. The percentage of injected activity per gram (%ID/g) for different organs was measured by dividing the activity of each organ per decayed total injected activity and mass of each organ. Moreover, in ischemic rats, 100 μg unlabeled peptide was co-injected with radiolabeled peptide to analyze the in vivo blocking test.

[2] = male, Wistar, rat, blood, iv, 20 MBq, total radioactivity
[3] = male, Wistar, rat, bone, iv, 20 MBq, total radioactivity
[4] = male, Wistar, rat, heart, iv, 20 MBq, total radioactivity
[5] = male, Wistar, rat, intestines, iv, 20 MBq, total radioactivity
[6] = male, Wistar, rat, ischemic heart / lung, iv, 20 MBq, total radioactivity
[7] = male, Wistar, rat, ischemic heart, iv, 20 MBq, total radioactivity
[8] = male, Wistar, rat, kidneys, iv, 20 MBq, total radioactivity
[9] = male, Wistar, rat, liver, iv, 20 MBq, total radioactivity
[10] = male, Wistar, rat, lung, iv, 20 MBq, total radioactivity
[11] = male, Wistar, rat, muscle, iv, 20 MBq, total radioactivity
[12] = male, Wistar, rat, salivary gland and thyroid, iv, 20 MBq, total radioactivity
[13] = male, Wistar, rat, spleen, iv, 20 MBq, total radioactivity
[14] = male, Wistar, rat, stomach, iv, 20 MBq, total radioactivity

With `CC(C)C[C@H](NC(=O)[C@H](Cc1ccccc1)NC(=O)[C@H](CCCCNC(=O)c1ccc(/N=N/c2ccc(N(C)C)cc2)cc1)NC(=O)[C@H](CCC(=O)O)NC(=O)[C@H](CC(C)C)NC(=O)[C@H](CCC(N)=O)NC(=O)[C@H](CCC(=O)O)NC(=O)[C@H](CCC(=O)O)NC(=O)CN1CCN(CC(=O)O)CCN(CC(=O)O)CCN(CC(=O)O)CC1)C(=O)N[C@@H](CC(N)=O)C(=O)N[C@@H](CO)C(=O)N[C@@H](CO)C(=O)O` [99mTc-DOTA-(Lys-Dabcyl6,Phe7)-ARA-290, metal not drawn] ({DOTA}-EEQLEK(X1)FLNSS-OH; C-terminus assumed) the “saline stability of radiopeptide (radiochemical purity remaining)” value [1] was 95%, the “Isch heart/Th ratio” value (in vivo; 60 min p.i., block with 100 μg unlabeled peptide, ischemic rats) was 1.04 and the “Isch heart/Lung ratio” value (in vivo; 180 min p.i., ischemic rats) was 2.61. The “Isch heart/Th ratio” value (in vivo; 180 min p.i., ischemic rats) was 4.68, the “Isch heart/Th ratio” value (in vivo; 360 min p.i., ischemic rats) was 6.01 and the tissue uptake at 0.5 h (in vivo; [2]) was 1.52 ± 0.29 %ID/g. The tissue uptake at 1 h (in vivo; [2]) was 0.96 ± 0.16 %ID/g, the tissue uptake at 3 h (in vivo; [2]) was 0.44 ± 0.28 %ID/g and the tissue uptake at 6 h (in vivo; [2]) was 0.12 ± 0.87 %ID/g. It also gave a tissue uptake at 0.5 h (in vivo; [3]) of 0.75 ± 0.41 %ID/g, a tissue uptake at 1 h (in vivo; [3]) of 0.53 ± 0.21 %ID/g and a tissue uptake at 3 h (in vivo; [3]) of 0.32 ± 0.21 %ID/g. For the same compound, the tissue uptake at 6 h (in vivo; [3]) was 0.16 ± 0.29 %ID/g, the tissue uptake at 0.5 h (in vivo; [4]) was 0.62 ± 0.15 %ID/g and the tissue uptake at 1 h (in vivo; [4]) was 0.31 ± 0.18 %ID/g. It also gave a tissue uptake at 3 h (in vivo; [4]) of 0.21 ± 0.32 %ID/g, a tissue uptake at 6 h (in vivo; [4]) of 0.14 ± 0.23 %ID/g and a tissue uptake at 0.5 h (in vivo; [5]) of 1.73 ± 0.1 %ID/g. The tissue uptake at 1 h (in vivo; [5]) was 3.22 ± 0.78 %ID/g, the tissue uptake at 3 h (in vivo; [5]) was 2.89 ± 0.08 %ID/g and the tissue uptake at 6 h (in vivo; [5]) was 2.35 ± 0.25 %ID/g. For the same compound, the tissue to tissue ratio at 0.5 h (in vivo; [6]) was 3.65, the tissue to tissue ratio at 1 h (in vivo; [6]) was 4.31 and the tissue to tissue ratio at 6 h (in vivo; [6]) was 3.37. The tissue uptake at 0.5 h (in vivo; [7]) was 3.44 ± 0.32 %ID/g, the tissue uptake at 1 h (in vivo; [7]) was 3.28 ± 0.52 %ID/g and the tissue uptake at 3 h (in vivo; [7]) was 1.36 ± 0.44 %ID/g. The tissue uptake at 6 h (in vivo; [7]) was 1.08 ± 0.94 %ID/g, the tissue uptake at 0.5 h (in vivo; [8]) was 10.6 ± 0.48 %ID/g and the tissue uptake at 1 h (in vivo; [8]) was 14.29 ± 0.01 %ID/g. The tissue uptake at 3 h (in vivo; [8]) was 8.58 ± 0.1 %ID/g, the tissue uptake at 6 h (in vivo; [8]) was 4.06 ± 0.43 %ID/g and the tissue uptake at 0.5 h (in vivo; [9]) was 3.55 ± 0.21 %ID/g. For the same compound, the tissue uptake at 1 h (in vivo; [9]) was 4.28 ± 0.15 %ID/g, the tissue uptake at 3 h (in vivo; [9]) was 3.49 ± 0.09 %ID/g and the tissue uptake at 6 h (in vivo; [9]) was 2.08 ± 0.28 %ID/g. The tissue uptake at 0.5 h (in vivo; [10]) was 0.94 ± 0.58 %ID/g, the tissue uptake at 1 h (in vivo; [10]) was 0.76 ± 0.77 %ID/g and the tissue uptake at 3 h (in vivo; [10]) was 0.52 ± 0.19 %ID/g. For the same compound, the tissue uptake at 6 h (in vivo; [10]) was 0.32 ± 0.22 %ID/g, the tissue uptake at 0.5 h (in vivo; [11]) was 0.53 ± 0.42 %ID/g and the tissue uptake at 1 h (in vivo; [11]) was 0.42 ± 0.84 %ID/g. The tissue uptake at 3 h (in vivo; [11]) was 0.25 ± 0.87 %ID/g, the tissue uptake at 6 h (in vivo; [11]) was 0.17 ± 0.31 %ID/g and the tissue uptake at 0.5 h (in vivo; [12]) was 0.79 ± 0.41 %ID/g. It also gave a tissue uptake at 1 h (in vivo; [12]) of 0.62 ± 0.15 %ID/g, a tissue uptake at 3 h (in vivo; [12]) of 0.29 ± 0.29 %ID/g and a tissue uptake at 6 h (in vivo; [12]) of 0.18 ± 0.81 %ID/g. The tissue uptake at 0.5 h (in vivo; [13]) was 2.56 ± 0.21 %ID/g, the tissue uptake at 1 h (in vivo; [13]) was 2.31 ± 0.12 %ID/g and the tissue uptake at 3 h (in vivo; [13]) was 1.16 ± 0.22 %ID/g. It also gave a tissue uptake at 6 h (in vivo; [13]) of 0.44 ± 0.29 %ID/g, a tissue uptake at 0.5 h (in vivo; [14]) of 0.88 ± 0.44 %ID/g and a tissue uptake at 1 h (in vivo; [14]) of 0.71 ± 0.31 %ID/g. It also gave a tissue uptake at 3 h (in vivo; [14]) of 0.54 ± 0.28 %ID/g and a tissue uptake at 6 h (in vivo; [14]) of 0.32 ± 0.19 %ID/g.

Source: article PMC8917853, “Synthesis and evaluation of ^99mTc-DOTA-ARA-290 as potential SPECT tracer for targeting cardiac ischemic region” (Iranian Journal of Basic Medical Sciences, 2021)
